Data from patent US20190300590A1 (PROTAGONIST THERAPEUTICS, published 2019).
*1 amine or outer side, *2 acyl side, *3 side chain or, on linkers, in order; H or OH if unused. Bridges are numbered along the chain shown (N, C = ends). [ ]: non-standard residue; d: D form. Phe(4-OMe) = 4-methoxy-L-phenylalanine (O-methyl-L-tyrosine), COc1ccc(C[C@H](N[*:1])C(=O)[*:2])cc1; 2Nal = N[C@@H](Cc1ccc2ccccc2c1)C(=O)O; β3hR = N=C(N)NCCC[C@H](N)CC(=O)O; NMeK = CN[C@@H](CCCCN)C(=O)O; αMeK = C[C@](N)(CCCCN)C(=O)O; Abu = CC[C@H](N)C(=O)O; AEA = NCCOCC(=O)O

Tests used:
Rat IL-23R_huFC [1] = target: Rat IL-23R_huFC (rat); assay: rat ELISA vs IL-23
IL23R_huFC [2] = target: T1, IL23R_huFC (human, UniProt Q5VWK5 24-353); assay: human ELISA vs IL-23
T1 sequence (looked up): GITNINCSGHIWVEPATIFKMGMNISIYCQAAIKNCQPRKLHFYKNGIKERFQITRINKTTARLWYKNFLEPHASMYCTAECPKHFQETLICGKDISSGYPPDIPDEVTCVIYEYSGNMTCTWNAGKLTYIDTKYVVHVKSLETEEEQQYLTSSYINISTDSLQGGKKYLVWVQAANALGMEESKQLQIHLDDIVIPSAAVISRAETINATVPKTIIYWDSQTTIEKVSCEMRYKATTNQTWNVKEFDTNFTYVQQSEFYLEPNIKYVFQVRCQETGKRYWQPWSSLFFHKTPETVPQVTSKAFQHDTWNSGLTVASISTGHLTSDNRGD

[3] = target: IL-12Rb1_huFC/IL-23R_huFC (human, UniProt P42701 24-540; Q5VWK5 24-353); assay: SPR, mixed IL-12Rb1_huFC/IL-23R_huFC surface, IL-23 as analyte
[4] = target: recombinant human IL-12Rβ1_huFC (RnD) (human, UniProt P42701 24-540); assay: SPR, IL-12Rb1_huFC captured on anti-human IgG, IL-23 as analyte
IL-23R on DB cells = target: T2, IL-23R on DB cells (human, UniProt Q5VWK5 24-629); assay: cell-based or functional assay
T2 sequence (looked up): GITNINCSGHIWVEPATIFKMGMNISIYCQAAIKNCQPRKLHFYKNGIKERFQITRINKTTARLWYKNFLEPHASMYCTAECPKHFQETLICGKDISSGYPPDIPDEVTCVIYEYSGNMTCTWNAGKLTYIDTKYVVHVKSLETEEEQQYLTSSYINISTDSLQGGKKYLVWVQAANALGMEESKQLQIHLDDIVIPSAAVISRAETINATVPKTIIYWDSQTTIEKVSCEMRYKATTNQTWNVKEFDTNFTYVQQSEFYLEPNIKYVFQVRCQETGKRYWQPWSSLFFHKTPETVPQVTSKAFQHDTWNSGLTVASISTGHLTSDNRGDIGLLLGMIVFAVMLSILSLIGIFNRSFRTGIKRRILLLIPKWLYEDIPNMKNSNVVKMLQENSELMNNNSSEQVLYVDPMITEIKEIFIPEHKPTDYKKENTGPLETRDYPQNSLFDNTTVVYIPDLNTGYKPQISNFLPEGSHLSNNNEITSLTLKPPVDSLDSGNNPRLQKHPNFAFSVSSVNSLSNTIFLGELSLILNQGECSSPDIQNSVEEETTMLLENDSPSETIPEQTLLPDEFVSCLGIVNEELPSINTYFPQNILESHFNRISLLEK

Rat IL-23R_huFC [5] = target: T3, Rat IL-23R_huFC (rat, UniProt F1LX96 39-369); assay: rat IL-23R competitive binding ELISA
T3 sequence: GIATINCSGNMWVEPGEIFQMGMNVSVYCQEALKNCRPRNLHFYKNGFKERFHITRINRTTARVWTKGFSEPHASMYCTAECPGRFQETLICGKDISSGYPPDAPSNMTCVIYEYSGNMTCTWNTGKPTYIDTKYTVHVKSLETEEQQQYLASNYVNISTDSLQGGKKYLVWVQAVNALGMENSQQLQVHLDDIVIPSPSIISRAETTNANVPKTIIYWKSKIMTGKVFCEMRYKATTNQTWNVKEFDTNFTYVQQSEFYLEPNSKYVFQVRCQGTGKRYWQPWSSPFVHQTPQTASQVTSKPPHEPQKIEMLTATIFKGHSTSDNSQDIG

IL23R_huFC [6] = target: T4, IL23R_huFC (human, UniProt Q5VWK5 24-353); assay: IL23-IL23R competitive ELISA
T4 sequence (looked up): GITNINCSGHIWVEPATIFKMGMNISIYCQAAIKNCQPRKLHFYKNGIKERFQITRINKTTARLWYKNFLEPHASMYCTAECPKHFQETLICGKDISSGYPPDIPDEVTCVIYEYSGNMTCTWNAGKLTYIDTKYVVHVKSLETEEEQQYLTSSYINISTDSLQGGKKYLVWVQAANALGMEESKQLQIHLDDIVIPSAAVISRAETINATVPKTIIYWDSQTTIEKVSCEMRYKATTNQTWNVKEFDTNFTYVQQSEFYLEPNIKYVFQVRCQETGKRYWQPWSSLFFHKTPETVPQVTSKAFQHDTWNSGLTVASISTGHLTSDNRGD

[7] = target: T5, IL-23R on human cells (IL-23R-expressing DB cells; human NK cells) (human, UniProt Q5VWK5 24-629); assay: cell-based or functional assay
T5 sequence (looked up): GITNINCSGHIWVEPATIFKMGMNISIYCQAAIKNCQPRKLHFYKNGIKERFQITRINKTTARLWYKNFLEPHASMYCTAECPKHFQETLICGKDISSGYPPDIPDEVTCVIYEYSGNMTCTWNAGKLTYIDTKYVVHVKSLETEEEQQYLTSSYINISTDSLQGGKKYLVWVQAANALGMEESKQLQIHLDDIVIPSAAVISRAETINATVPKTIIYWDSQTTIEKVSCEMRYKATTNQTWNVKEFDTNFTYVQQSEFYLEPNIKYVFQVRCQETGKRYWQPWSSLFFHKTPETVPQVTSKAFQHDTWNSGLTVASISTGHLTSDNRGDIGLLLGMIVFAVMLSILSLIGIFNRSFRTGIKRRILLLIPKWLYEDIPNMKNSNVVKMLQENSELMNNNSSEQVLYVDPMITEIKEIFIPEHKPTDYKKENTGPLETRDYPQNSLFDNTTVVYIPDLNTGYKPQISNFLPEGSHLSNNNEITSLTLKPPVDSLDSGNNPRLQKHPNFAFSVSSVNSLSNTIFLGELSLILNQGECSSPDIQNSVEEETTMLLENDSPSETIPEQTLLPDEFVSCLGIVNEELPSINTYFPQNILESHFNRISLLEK

IL23R_huFC [8] = target: T6, IL23R_huFC (human, UniProt Q5VWK5 24-353); assay: IL23-IL23R competitive binding ELISA
T6 sequence (looked up): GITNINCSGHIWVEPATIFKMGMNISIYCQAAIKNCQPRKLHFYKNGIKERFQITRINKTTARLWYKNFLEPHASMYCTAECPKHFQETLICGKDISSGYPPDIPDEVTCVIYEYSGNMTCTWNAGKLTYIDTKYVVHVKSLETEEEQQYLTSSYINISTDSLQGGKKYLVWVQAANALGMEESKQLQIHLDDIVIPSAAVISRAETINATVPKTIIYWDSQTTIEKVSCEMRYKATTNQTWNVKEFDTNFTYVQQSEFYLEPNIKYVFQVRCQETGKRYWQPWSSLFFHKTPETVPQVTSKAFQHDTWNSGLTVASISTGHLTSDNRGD

[9] = target: T5, IL-23R on human cells …; assay: cell-based or functional assay; remark: listed apart in the source
IL23R_huFC [10] = target: T1, IL23R_huFC; assay: human ELISA vs IL-23; remark: listed apart in the source

For XQTWQXFXKENG (as bracketed in name; thioether cyclo) [Ac-Cyclo-[[Abu]-QTWQ-[Pen]]-[Phe(4-OMe)]-[2-Nal]-[α-MeLys]-ENG-NH2], the IC50 (Rat IL-23R_huFC [1]) was 100 to 1000 nM and the IC50 (IL23R_huFC [2]) was 100 to 1000 nM.

B1: Recombinant human IL-23 (Humanzyme) (ligand)
chain 1: RAVPGGSSPAWTQCQQLSQKLCTLAWSAHPLVGHMDLREEGDEETTNDVPHIQCGDGCDPQGLRDNSQFCLQRIHQGLIFYEKLLGSDIFTGEPSLLPDSPVGQLHASLLGLSQLLQPEGHHWETQQIPSLSPSQPWQRLLLRFKILRSLQAFVAVAARVFAHGAATLSP
chain 2: IWELKKDVYVVELDWYPDAPGEMVVLTCDTPEEDGITWTLDQSSEVLGSGKTLTIQVKEFGDAGQYTCHKGGEVLSHSLLLLHKKEDGIWSTDILKDQKEPKNKTFLRCEAKNYSGRFTCWWLTTISTDLTFSVKSSRGSSDPQGVTCGAATLSAERVRGDNKEYEYSVECQEDSACPAAEESLPIEVMVDAVHKLKYENYTSSFFIRDIIKPDPPKNLQLKPLKNSRQVEVSWEYPDTWSTPHSYFSLTFCVQVQGKSKREKKDRVFTDKTSATVICRKNASISVRAQDRYYSSSWSEWASVPCS
B1 gave a Kd [3] of 0.18 nM, a koff [3] of 0.000115 s⁻¹ and a kon [3] of 631000 M⁻¹ s⁻¹. The Kd [4] was 0.87 nM, the koff [4] was 0.000438 s⁻¹ and the kon [4] was 501000 M⁻¹ s⁻¹.

With CQTWQCYWXENG (not fully specified; Ac; Ogl; NH2) [Ac-CQTWQCYW-[Ogl]-ENG-NH2] the “pStat3 HTRF IC50” value (IL-23R on DB cells) was 76 nM.

B2: Ac-CSTWQCYWLKHGGE-NH2 (peptide)
peptide: Ac-CSTWQCYWLKHGGE-NH2
modifications: disulfide 1-6
SMILES: CC(=O)N[C@H]1CSSC[C@@H](C(=O)N[C@@H](Cc2ccc(O)cc2)C(=O)N[C@@H](Cc2c[nH]c3ccccc23)C(=O)N[C@@H](CC(C)C)C(=O)N[C@@H](CCCCN)C(=O)N[C@@H](Cc2c[nH]cn2)C(=O)NCC(=O)NCC(=O)N[C@@H](CCC(=O)O)C(N)=O)NC(=O)[C@H](CCC(N)=O)NC(=O)[C@H](Cc2c[nH]c3ccccc23)NC(=O)[C@H]([C@@H](C)O)NC(=O)[C@H](CO)NC1=O
B2 was tested, and the “pStat3 HTRF IC50” value (IL-23R on DB cells) was 2 nM and the IC50 (Rat IL-23R_huFC [5]) was 24 nM.

For Ac-ARTWQ[MeCys]YWRKFG[AEA][dK]-NH2 (not fully specified; printed as Ac-ARTWQ-[MeCys]-YWRKFG-[AEA]-[(D)Lys]-NH2) [Ac-ARTWQ-[MeCys]-YWRKFG-[AEA]-[(D)Lys]-NH2], the IC50 (IL23R_huFC [6]) was 7570 nM.

With Ac-C[NMeK]TWQCYWRVFG[AEA][dK]-NH2 (cysteine pairing not given here) [Ac-C-[N-MeLys]-TWQCYWRVFG-[AEA]-[(D)Lys]-NH2] the IC50 (IL23R_huFC [6]) was 80 nM.

With Ac-CKTWQCYWRVFG[AEA][dK]-NH2 (cysteine pairing not given here) [Ac-CKTWQCYWRVFG-[AEA]-[(D)Lys]-NH2] the IC50 (IL23R_huFC [6]) was 40 nM.

For XNTWQXFXXKNA (as bracketed in name; Pen-Pen disulfide) [Ac-[Pen]-NTWQ-[Pen]-[Phe]4-(2-aminoethoxy)]-[2-Nal]-[Aib]-[Lys(Ac)]-N-[βAlal-NH2], the “NK cell assay IC50 (IFNγ)” value [7] was less than 10 nM.

B3: Ac-CQTWQCYW-[βhArg]-VNG-[AEA]-[(D)Lys]-NH2 (peptide)
peptide: Ac-CQTWQCYW[β3hR]VNG[AEA][dK]-NH2
modifications: disulfide 1-6
SMILES: CC(=O)N[C@H]1CSSC[C@@H](C(=O)N[C@@H](Cc2ccc(O)cc2)C(=O)N[C@@H](Cc2c[nH]c3ccccc23)C(=O)N[C@@H](CCCNC(=N)N)CC(=O)N[C@H](C(=O)N[C@@H](CC(N)=O)C(=O)NCC(=O)NCCOCC(=O)N[C@H](CCCCN)C(N)=O)C(C)C)NC(=O)[C@H](CCC(N)=O)NC(=O)[C@H](Cc2c[nH]c3ccccc23)NC(=O)[C@H]([C@@H](C)O)NC(=O)[C@H](CCC(N)=O)NC1=O
B3 gave an IC50 (IL23R_huFC [6]) of 922 nM.

CQTWQCXWXENG (not fully specified; Ac; X7 = Cha; X9 = hLeu; NH2) [Ac-CQTWQC-[Cha]-W-[hLeu]-ENG-NH2] showed an IC50 (IL23R_huFC [8]) of roughly 6000 nM.

Binder Ac-CQTWQCYW[dL]ENG-NH2 (cysteine pairing not given here) [Ac-CQTWQCYW-[(D)Leu]-ENG-NH2] has an IC50 (IL23R_huFC [8]) of 319 nM.

Ac-[Abu]QTWQC[Phe(4-OMe)][2Nal][αMeK]ENG-NH2 (thioether 1-6) [Ac-Cyclo-[[Abu]-QTWQC]-[Phe(4-OMe)]-[2-Nal]-[α-MeLys]-ENG-NH2] was tested, and the “pStat3 HTRF IC50” value [9] was less than 10 nM, the IC50 (IL23R_huFC [10]) was 25 to 100 nM and the IC50 (Rat IL-23R_huFC [1]) was 100 to 1000 nM.

Work on Ac-[Abu]QTWQCYWRENG[AEA][dK]-NH2 (thioether 1-6) [Ac-Cyclo-[[Abu]-QTWQC]-YWRENG-[AEA]-[(D)Lys]-NH2] yielded an IC50 (Rat IL-23R_huFC [1]) of 100 to 1000 nM and an IC50 (IL23R_huFC [2]) of 100 to 1000 nM.
